Laboratory results taken from patent US20250320258.

Test system: NSP1 (SARS-CoV-2)

18S rRNA gave a binding signal (fold enrichment) of over 5.
